Measurements taken from patent US20150166663A1.
Blank lines part the entries; values can stand above or below the substance they belong to.

Columns and labels:
[1] = target: α4β1 integrin on J6.77 cells (UniProt P13612); assay: cell-based or functional assay
[2] = target: cynomolgus αVβ6 on cells (cynomolgus); assay: FACS, transiently transfected HEK-293 cells
[3] = target: cynomolgus β6 on transfected HEK-293 cells (cynomolgus); assay: FACS, transiently transfected HEK-293 cells
[4] = target: mouse αVβ6 on cells (mouse) (UniProt P43406); assay: FACS, K562 cells expressing mouse αVβ6 (parental 46)
[5] = target: cynomolgus αVβ6 on cells (cynomolgus); assay: FACS, K562 cells expressing cynomolgus αVβ6 (parental 46)
[6] = target: human αV on parental A375M cells (αVβ3 and αVβ5) (human) (UniProt P06756); assay: cell-based or functional assay
[7] = target: α5β1 integrin on K562 cells (UniProt P08648); assay: cell-based or functional assay
[8] = target: human αV on parental A375M cells (αVβ3 and αVβ5) (human) (UniProt P06756); assay: FACS, parental A375M cells, day 1
[9] = target: human αV on parental A375M cells (αVβ3 and αVβ5) (human) (UniProt P06756); assay: FACS, parental A375M cells, day 2
[10] = target: cynomolgus αVβ6 on cells (cynomolgus); assay: FACS, HEK-293 cells transfected with cynomolgus αV and β6, day 1
[11] = target: cynomolgus αVβ6 on cells (cynomolgus); assay: FACS, HEK-293 cells transfected with cynomolgus αV and β6, day 2
[12] = target: mouse αVβ6 on cells (mouse) (UniProt P43406); assay: FACS, K562 cells expressing mouse αVβ6 (parental 12)
[13] = target: cynomolgus αVβ6 on cells (cynomolgus); assay: FACS, K562 cells expressing cynomolgus αVβ6 (parental 12)
[14] = target: mouse αVβ6 on cells (mouse) (UniProt P43406); assay: FACS, K562 cells expressing mouse αVβ6 (parental 23)
[15] = target: cynomolgus αVβ6 on cells (cynomolgus); assay: FACS, K562 cells expressing cynomolgus αVβ6 (parental 23)
[16] = target: human αVβ6 integrin on cells (human) (UniProt P06756); assay: cell-based or functional assay
[17] = target: soluble αVβ6 (human) (UniProt P06756); assay: ELISA, 1 ug/mL on coated soluble αVβ6
[18] = target: human αV on parental A375M cells (αVβ3 and αVβ5) (human) (UniProt P06756); assay: FACS, 1 ug/ml, parental A375M cells, day 1
[19] = target: human αV on parental A375M cells (αVβ3 and αVβ5) (human) (UniProt P06756); assay: FACS, 1 ug/ml, parental A375M cells, day 2
[20] = target: mouse αVβ6 on cells (mouse) (UniProt P43406); assay: FACS, K562 cells expressing mouse αVβ6 (parental 15)
[21] = target: human αVβ6 integrin on cells (human) (UniProt P06756); assay: FMAT, 1 ug/mL on HEK 293 cells stably overexpressing αVβ6
[22] = target: cynomolgus αVβ6 on cells (cynomolgus); assay: FACS, K562 cells expressing cynomolgus αVβ6 (parental 15)
[23] = target: cynomolgus αVβ6 on cells (cynomolgus); assay: FACS, 1 ug/ml, HEK-293 cells transfected with cynomolgus αV and β6, day 1
[24] = target: cynomolgus αVβ6 on cells (cynomolgus); assay: FACS, 1 ug/ml, HEK-293 cells transfected with cynomolgus αV and β6, day 2

Sequence of human αVβ6 integrin on cells (human) (P06756 31-1048, chain 1 of 2): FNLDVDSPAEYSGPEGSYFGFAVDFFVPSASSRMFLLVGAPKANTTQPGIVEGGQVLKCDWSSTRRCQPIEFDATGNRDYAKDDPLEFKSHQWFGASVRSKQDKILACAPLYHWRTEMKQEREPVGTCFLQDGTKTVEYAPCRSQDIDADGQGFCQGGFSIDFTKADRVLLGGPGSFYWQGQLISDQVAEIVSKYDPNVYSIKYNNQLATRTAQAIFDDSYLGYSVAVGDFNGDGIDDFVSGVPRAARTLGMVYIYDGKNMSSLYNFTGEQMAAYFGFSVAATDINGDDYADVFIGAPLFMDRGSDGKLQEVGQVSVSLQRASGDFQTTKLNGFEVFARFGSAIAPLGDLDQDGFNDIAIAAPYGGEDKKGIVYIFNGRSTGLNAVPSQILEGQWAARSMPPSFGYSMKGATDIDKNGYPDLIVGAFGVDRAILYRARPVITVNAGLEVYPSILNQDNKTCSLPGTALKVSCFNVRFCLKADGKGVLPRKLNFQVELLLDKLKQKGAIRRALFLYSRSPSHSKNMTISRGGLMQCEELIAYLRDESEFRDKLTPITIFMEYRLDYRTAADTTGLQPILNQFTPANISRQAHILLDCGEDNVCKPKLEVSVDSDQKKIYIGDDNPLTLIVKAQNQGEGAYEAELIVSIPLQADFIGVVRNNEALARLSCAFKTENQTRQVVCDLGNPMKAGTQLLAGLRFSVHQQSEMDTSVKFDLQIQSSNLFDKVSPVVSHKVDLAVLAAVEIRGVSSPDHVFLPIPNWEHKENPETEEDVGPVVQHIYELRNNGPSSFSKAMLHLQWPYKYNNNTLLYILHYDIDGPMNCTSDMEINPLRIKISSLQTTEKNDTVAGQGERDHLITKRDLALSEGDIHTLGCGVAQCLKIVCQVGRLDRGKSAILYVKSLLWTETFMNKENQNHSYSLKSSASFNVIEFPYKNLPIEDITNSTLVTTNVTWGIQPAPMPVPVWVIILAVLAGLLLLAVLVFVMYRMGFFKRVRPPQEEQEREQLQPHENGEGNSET
Sequence of human αVβ6 integrin on cells (human) (P18564 22-788, chain 2 of 2, further chain): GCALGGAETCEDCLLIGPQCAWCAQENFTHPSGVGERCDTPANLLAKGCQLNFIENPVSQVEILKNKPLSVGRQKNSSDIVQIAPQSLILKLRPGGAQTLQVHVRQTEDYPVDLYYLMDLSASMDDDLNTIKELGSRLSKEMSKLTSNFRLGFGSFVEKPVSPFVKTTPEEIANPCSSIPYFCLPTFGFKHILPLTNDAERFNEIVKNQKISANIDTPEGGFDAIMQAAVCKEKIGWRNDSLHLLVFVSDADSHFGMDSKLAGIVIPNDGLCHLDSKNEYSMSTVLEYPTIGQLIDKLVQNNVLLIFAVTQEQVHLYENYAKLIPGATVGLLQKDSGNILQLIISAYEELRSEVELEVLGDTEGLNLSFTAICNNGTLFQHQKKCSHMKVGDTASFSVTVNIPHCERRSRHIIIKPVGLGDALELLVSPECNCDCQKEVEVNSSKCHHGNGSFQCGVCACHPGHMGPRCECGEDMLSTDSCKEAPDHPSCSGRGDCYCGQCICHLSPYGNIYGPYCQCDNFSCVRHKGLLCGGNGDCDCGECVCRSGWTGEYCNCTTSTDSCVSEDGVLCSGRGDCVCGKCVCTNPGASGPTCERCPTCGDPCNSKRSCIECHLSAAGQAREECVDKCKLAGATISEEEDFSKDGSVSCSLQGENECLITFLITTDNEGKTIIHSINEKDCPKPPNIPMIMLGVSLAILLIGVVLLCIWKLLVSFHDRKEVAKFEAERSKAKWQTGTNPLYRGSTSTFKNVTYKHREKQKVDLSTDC
Sequence of mouse αVβ6 on cells (mouse) (P43406 31-1044, chain 1 of 2): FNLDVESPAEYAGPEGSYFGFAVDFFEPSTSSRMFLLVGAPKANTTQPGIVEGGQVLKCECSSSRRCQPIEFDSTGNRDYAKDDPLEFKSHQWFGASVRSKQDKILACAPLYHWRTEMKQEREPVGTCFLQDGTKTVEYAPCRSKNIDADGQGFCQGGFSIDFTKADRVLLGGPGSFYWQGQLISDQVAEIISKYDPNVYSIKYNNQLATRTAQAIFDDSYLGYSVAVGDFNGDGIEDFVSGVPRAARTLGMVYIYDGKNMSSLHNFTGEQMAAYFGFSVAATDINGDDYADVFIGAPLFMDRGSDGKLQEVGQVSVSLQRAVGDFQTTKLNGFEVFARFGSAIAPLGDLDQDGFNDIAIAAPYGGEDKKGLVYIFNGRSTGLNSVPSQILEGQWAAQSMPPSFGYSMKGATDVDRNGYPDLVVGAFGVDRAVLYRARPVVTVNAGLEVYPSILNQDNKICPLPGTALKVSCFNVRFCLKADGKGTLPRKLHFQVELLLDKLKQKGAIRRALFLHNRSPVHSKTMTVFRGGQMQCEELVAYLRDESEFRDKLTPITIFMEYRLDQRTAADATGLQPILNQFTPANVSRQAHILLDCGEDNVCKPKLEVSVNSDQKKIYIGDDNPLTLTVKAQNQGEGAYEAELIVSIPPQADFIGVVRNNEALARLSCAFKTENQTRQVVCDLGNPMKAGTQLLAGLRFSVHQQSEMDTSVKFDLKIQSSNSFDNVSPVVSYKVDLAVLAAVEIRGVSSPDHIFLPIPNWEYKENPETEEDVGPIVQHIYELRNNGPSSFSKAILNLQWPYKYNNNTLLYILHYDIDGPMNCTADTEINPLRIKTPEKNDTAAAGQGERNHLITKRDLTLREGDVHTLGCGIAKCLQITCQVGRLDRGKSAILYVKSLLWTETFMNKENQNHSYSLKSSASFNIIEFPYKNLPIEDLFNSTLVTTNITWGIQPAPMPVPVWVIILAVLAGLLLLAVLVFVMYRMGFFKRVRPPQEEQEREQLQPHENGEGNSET
Sequence of mouse αVβ6 on cells (mouse) (Q9Z0T9 22-787, chain 2 of 2, further chain): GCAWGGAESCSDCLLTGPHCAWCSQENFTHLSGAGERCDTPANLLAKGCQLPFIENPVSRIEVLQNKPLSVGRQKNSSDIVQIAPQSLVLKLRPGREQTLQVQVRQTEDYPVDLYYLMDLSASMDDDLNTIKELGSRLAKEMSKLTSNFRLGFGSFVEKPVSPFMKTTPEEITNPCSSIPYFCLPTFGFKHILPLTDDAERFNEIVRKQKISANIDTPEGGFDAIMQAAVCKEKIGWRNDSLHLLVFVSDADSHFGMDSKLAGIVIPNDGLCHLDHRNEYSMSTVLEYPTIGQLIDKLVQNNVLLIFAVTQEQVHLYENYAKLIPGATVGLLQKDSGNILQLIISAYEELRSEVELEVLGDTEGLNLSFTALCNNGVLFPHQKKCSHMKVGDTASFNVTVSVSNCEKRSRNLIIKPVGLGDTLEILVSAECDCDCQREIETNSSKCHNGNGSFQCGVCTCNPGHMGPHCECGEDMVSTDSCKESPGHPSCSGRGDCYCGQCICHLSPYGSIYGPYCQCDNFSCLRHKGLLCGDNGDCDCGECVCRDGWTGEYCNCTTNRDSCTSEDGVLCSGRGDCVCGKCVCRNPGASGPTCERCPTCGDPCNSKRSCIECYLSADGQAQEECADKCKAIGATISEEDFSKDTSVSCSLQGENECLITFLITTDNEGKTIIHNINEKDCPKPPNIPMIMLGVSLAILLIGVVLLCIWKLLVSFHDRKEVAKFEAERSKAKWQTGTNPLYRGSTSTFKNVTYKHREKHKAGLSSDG

- Percent Inhibition, adhesion of J6.77 cells to CS-1 peptide of fibronectin, 5 ug/ml [1]: 13%
- Percent Inhibition, adhesion of J6.77 cells to CS-1 peptide of fibronectin, 5 µg/ml [1]: -9%
Substance: Human IgG2 (antibody)

- Percent Inhibition, adhesion of J6.77 cells to CS-1 peptide of fibronectin, 5 ug/ml [1]: 15%
Substance: Human IgG4 (antibody)

- Percent Inhibition, adhesion of A375M cells to osteopontin peptide, 5 µg/ml [6]: 3%
- % Inhibition, adhesion of K562 cells to fibronectin [7]: -12%
- Percent Inhibition, adhesion of K562 cells to FN9-10 peptide of fibronectin, 5 µg/ml [7]: 11%
- A375M % Shifted Cells [8]: 5%
- A375M GeoMean [8]: 1.66
- A375M % Shifted Cells [9]: 1%
- A375M GeoMean [9]: 7.23
- Mac AVB6 % Cells Shifted [10]: 1%
- Mac AVB6 GeoMean [10]: 9.54
- Mac AVB6 % Cells Shifted [11]: 0%
- Mac AVB6 GeoMean [11]: 7.39
Substance: Human IgG Isotype Control (antibody)

- Estimated IC50, adhesion of HT29 cells to TGFβLAP, n = 1 [16]: 0.226 µg/mL
- Estimated IC50, adhesion of HT29 cells to TGFβLAP, n = 2 [16]: 0.185 µg/mL
- Estimated IC50, adhesion of HT29 cells to TGFβLAP, n = 3 [16]: 0.286 µg/mL
- ELISA OD [17]: 6 OD
- A375M % Shifted Cells [18]: 30%
- A375M GeoMean [18]: 2.03
- A375M % Shifted Cells [19]: 5%
- A375M GeoMean [19]: 15.4
- percent of cells shifted [2]: 20%
- percent of cells shifted [3]: 5%
- Geometric Mean Shift (arbitrary units) [20]: 122
- FMAT FL1XCount [21]: 44200
- Geometric Mean Shift (arbitrary units) [22]: 84
- Mac AVB6 % Cells Shifted [23]: 42%
- Mac AVB6 GeoMean [23]: 55.5
- Mac AVB6 % Cells Shifted [24]: 11%
- Mac AVB6 GeoMean [24]: 28.1
Substance: murine αVβ6 antibody (Cat#MAB2077z, Chemicon)

Further lines, the substance ahead of its results:

Substance: Human IgG1 (antibody)
- Percent Inhibition, adhesion of J6.77 cells to CS-1 peptide of fibronectin, 5 ug/ml [1]: 26%
- Percent Inhibition, adhesion of J6.77 cells to CS-1 peptide of fibronectin, 5 µg/ml [1]: -6%
- percent of cells shifted [2]: 0%
- percent of cells shifted [3]: 1%
- Geometric Mean Shift (arbitrary units) [4]: 108
- Geometric Mean Shift (arbitrary units) [5]: 54

Substance: Mouse IgG1 (antibody)
- Geometric Mean Shift (arbitrary units) [12]: 20
- Geometric Mean Shift (arbitrary units) [13]: 13

Substance: Mouse IgG2 with Murine Secondary Antibody
- A375M % Shifted Cells [8]: 4%
- A375M GeoMean [8]: 1.67
- A375M % Shifted Cells [9]: 3%
- A375M GeoMean [9]: 11.2
- Mac AVB6 % Cells Shifted [10]: 1%
- Mac AVB6 GeoMean [10]: 8.85
- Mac AVB6 % Cells Shifted [11]: 0%
- Mac AVB6 GeoMean [11]: 11.2

Substance: Mouse IgG2a (antibody)
- Geometric Mean Shift (arbitrary units) [14]: 36
- Geometric Mean Shift (arbitrary units) [15]: 25

Substance: Mouse IgG Control (antibody)
- Percent Inhibition, adhesion of A375M cells to osteopontin peptide, 5 µg/ml [6]: 5%
